Measured values published in US20200317817A1 (XOMA US, published 2020).
Where a chain is given by its changes, count along the chain named.

T1: human PTH1R on Saos-2 cells (endogenous) (human, UniProt Q03431 27-593)
T1 sequence (looked up): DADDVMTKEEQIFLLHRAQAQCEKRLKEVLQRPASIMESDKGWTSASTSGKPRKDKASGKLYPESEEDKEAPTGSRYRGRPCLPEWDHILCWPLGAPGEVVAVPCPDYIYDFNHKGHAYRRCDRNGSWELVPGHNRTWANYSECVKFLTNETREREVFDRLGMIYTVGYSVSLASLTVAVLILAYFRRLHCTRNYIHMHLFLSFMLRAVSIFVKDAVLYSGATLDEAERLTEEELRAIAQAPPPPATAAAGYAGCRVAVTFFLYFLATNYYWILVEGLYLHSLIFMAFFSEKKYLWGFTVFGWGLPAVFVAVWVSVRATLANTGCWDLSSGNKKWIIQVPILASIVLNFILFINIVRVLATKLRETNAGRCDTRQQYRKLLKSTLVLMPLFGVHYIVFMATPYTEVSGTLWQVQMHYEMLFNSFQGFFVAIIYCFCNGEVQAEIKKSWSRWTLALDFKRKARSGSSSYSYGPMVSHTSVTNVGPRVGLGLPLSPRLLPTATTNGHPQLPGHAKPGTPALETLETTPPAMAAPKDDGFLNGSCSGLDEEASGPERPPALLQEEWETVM

T2: rat PTH1R on UMR106 cells (rat, UniProt P25961 27-591)
T2 sequence (looked up): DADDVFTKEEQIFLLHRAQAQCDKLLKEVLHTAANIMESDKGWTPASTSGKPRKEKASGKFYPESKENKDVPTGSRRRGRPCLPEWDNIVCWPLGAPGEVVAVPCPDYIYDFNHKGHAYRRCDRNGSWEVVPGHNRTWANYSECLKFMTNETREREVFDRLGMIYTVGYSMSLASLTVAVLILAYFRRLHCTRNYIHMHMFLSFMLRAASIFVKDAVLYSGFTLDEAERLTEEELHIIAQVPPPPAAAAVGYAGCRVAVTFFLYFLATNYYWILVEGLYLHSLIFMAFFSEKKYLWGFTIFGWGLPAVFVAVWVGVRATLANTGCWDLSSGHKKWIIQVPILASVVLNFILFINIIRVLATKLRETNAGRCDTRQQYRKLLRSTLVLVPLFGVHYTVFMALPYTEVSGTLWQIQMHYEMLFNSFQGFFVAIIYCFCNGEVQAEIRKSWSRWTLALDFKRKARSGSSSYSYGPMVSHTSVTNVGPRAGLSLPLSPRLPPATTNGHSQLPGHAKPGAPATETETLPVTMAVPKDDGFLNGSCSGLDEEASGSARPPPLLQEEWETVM

T3: human PTH1R overexpressed on CHO cells (human, UniProt Q03431 27-593)
T3 sequence (looked up): T1 sequence (looked up)

T4: mouse PTH1R overexpressed on CHO cells (mouse, UniProt P41593 27-591)
T4 sequence (looked up): T2 sequence (looked up) with S58P, P497L, T518I, T520N, L523I, A528T

T5: recombinant N-terminal extracellular domain of the human PTH1R receptor (human, UniProt Q03431 27-188, limits assumed)
T5 construct: domain: N-terminal extracellular domain; Bought reagent; also called N-ECD PTH1R; PTH1R N-terminal ECD
T5 sequence (looked up): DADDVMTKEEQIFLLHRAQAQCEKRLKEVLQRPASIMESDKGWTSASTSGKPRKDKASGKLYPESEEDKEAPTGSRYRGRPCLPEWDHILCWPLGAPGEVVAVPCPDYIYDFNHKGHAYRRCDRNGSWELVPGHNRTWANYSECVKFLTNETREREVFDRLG

T6: human PTH1R overexpressed on Saos-2 cells (human, UniProt Q03431 27-593)
T6 construct: whole, on cells; also called Saos-2 human PTH1R cells
T6 sequence (looked up): T1 sequence (looked up)

B1: XPA.85.330 (antibody, V domains shown)
VH: QMQLVQSGAEVKKPGSSVKVSCKASGGTFSSYAISWVRQAPGQGLEWMGGIIPIFGTANYAQKFQGRVTITADESTSTAYMELSSLRSEDTAVYYCARGYVVARLWGQGTLVTVSS
VL: DIVMTQTPLSLSVTPGQPASISCKSSQSLLHIDGNTYLYWYLQRPGQPPQLLIYEISNRFSGVPDRFSGSGSGTDFTLKISRVEAEDVGVYYCMQSLHFPITFGQGTRLEIK
notes: IgG; also called Ab330
B2: XPA.85.328 (antibody, V domains shown)
VH: B1 VH
VL: B1 VL with I2V, N35K, R44K, P45S, P48S, I56V, R66T
notes: IgG; also called Ab328

How the values were obtained:
[1] = molecular target: T1, human PTH1R on Saos-2 cells (endogenous); assay: cell-based or functional assay
[2] = molecular target: T2, rat PTH1R on UMR106 cells; assay: cell-based or functional assay
[3] = molecular target: T1, human PTH1R on Saos-2 cells (endogenous); assay: cell-based or functional assay; remark: listed apart in the source
[4] = molecular target: T3, human PTH1R overexpressed on CHO cells; assay: cell-based or functional assay
[5] = molecular target: T4, mouse PTH1R overexpressed on CHO cells; assay: cell-based or functional assay
[6] = molecular target: T5, recombinant N-terminal extracellular …; assay: SPR, IgG captured, ECD injected
Summary of the method: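 Antibodies (0.5 μg/mL) captured on anti-human IgG-Fc chip to 100–200 RU in HBS-EP+ with 2.5 mg/mL BSA; receptor ECD injected at 30 μL/minute for 240 s, 360 s dissociation, 3M MgCl regeneration. Double-referenced data fit globally for ka and kd; KD=kd/kₐ.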

[7] = molecular target: T7, human PTH2R overexpressed on CHO cells (human, UniProt P49190 25-550); assay: flow cytometry on CHO cells overexpressing human PTH2R, 1 hr at 4 C, APC anti-human IgG
T7 construct: whole, on cells; also called CHO human PTH2R
Experimental: Increasing concentrations of anti-PTH1R antibodies were added to CHO cells overexpressing human PTH2R and incubated for 1 hr at 4° C. (FIG. 8). Cells were washed twice with FACS Buffer and antibody binding was detected with anti-human IgG APC. […] Anti-KLH.G2 was used a negative control for binding.
PTH2R has a 51% homology to PTH1R. […] Following two washes, cells were incubated with Allophycocyanin (APC) AffiniPure F(ab′)₂ Fragment Goat Anti-Human IgG (H+L) (Jackson ImmunoResearch, West Grove, Pa.) for 20 minutes at 4° C. Cells were washed twice and resuspended in FACS Buffer. Samples were acquired using BD Cytometer (BD Biosciences, San Jose, Calif.) and data were analyzed using FlowJo (FlowJo, LLC, Ashland, Oreg.) and Prism (GraphPad Software, La Jolla, Calif.). […] Anti-KLH.G2 was used a negative control for binding.

[8] = molecular target: T6, human PTH1R overexpressed on Saos-2 …; assay: flow cytometry on Saos-2 cells overexpressing human PTH1R, antibody alone, PE anti-human IgG
[9] = molecular target: T6, human PTH1R overexpressed on Saos-2 …; assay: flow cytometry on Saos-2 cells overexpressing human PTH1R, in the presence of 1 uM PTH, PE anti-human IgG
[10] = molecular target: T6, human PTH1R overexpressed on Saos-2 …; assay: flow cytometry on Saos-2 cells overexpressing human PTH1R, in the presence of 3 uM PTHrP, PE anti-human IgG
[11] = molecular target: T6, human PTH1R overexpressed on Saos-2 …; assay: flow cytometry on Saos-2 cells overexpressing human PTH1R, antibody alone, PE anti-human IgG; remark: listed apart in the source
[12] = molecular target: T6, human PTH1R overexpressed on Saos-2 …; assay: flow cytometry on Saos-2 cells overexpressing human PTH1R, in the presence of 1 uM PTH, PE anti-human IgG; remark: listed apart in the source
[13] = molecular target: T6, human PTH1R overexpressed on Saos-2 …; assay: flow cytometry on Saos-2 cells overexpressing human PTH1R, in the presence of 3 uM PTHrP, PE anti-human IgG; remark: listed apart in the source
Excerpt: Antibody binding was detected with R-Phycoerythrin anti-human IgG.

T7 sequence (P49190 25-550): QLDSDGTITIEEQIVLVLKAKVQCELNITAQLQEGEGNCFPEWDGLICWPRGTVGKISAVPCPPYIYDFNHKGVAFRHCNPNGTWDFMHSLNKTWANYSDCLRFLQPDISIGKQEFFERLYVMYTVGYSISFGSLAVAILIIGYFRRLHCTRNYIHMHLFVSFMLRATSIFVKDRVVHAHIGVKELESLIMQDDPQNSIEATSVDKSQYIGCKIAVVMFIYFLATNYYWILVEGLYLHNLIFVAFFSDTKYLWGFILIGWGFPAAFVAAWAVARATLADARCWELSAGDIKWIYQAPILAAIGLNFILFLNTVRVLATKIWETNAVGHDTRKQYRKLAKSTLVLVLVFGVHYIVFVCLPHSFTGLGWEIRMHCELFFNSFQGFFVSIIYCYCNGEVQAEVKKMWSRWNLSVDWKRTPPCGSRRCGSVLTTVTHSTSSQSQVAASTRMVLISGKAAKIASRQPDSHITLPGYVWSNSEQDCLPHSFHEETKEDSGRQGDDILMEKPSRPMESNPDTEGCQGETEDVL

| Binder | EC50 of antibody, neutralization of M-CSF production induced by 12.5 nM PTHrP (1-36) [1] | fold shift of the PTHrP (1-36) dose response, M-CSF secretion by Saos-2 cells, 40 µg/mL antibody [1] | % inhibition of cAMP accumulation at 1 µM PTH(1-34), 267 nM IgG [2] | % inhibition of cAMP accumulation at 1 µM PTHrP(1-34), 267 nM IgG [2] | % inhibition of cAMP accumulation at 1 µM PTH(1-34), 267 nM IgG [3] | % inhibition of cAMP accumulation at 1 µM PTHrP(1-34), 267 nM IgG [3] | IC50, inhibition of PTH(1-34)-induced cAMP accumulation [4] | IC50, inhibition of PTHrP(1-34)-induced cAMP accumulation [4] | IC50, inhibition of PTHrP(1-34)-induced cAMP accumulation [5] | Kd [6] | koff [6] | kon [6] | binding result [7] | EC50 [8] | EC50 [9] | EC50 [10] | EC50 [11] | EC50 [12] | EC50 [13] |
| --- | --- | --- | --- | --- | --- | --- | --- | --- | --- | --- | --- | --- | --- | --- | --- | --- | --- | --- | --- |
| B1 | 1.5 nM | > 200 fold | 55% | 56% | 85% | 89% | 10.6 nM | 8.23 nM | 2.82 nM | 0.19 nM | 9e-05 s⁻¹ | 470000 M⁻¹ s⁻¹ | no binding (tested: about 160 nM) | 3.67 nM | 21.7 nM | 193 nM |  |  |  |
| B2 | 6.6 nM | > 200 fold |  |  |  |  | 11.8 nM | 7.06 nM | 2.23 nM | 0.32 nM | 0.00018 s⁻¹ | 560000 M⁻¹ s⁻¹ | no binding (tested: about 160 nM) |  |  |  | 4.4 nM | 67.4 nM | 465 nM |
